Test [1] concerns the target T1, Human CXCL10-His (human, UniProt P02778 22-98).
T1 construct: also called hCXCL10; recombinant human CXCL10 protein; not shown: His tag (named CXCL10-His)
T1 sequence (looked up): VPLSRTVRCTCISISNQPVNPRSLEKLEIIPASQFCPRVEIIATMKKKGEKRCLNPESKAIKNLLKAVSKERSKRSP
Kind of test: ELISA, IgG titrated from 50 nM on coated CXCL10. How it is done: Specifically, ELISA was carried out by coating a recombinant human CXCL10 protein with a coating buffer at 100 ng per well in a 96-well immunoplate at 4° C. for 16 hours, and a reaction in each well was blocked with skim milk (4%) dissolved in PBS. 0.2 ml of PBS-Tween20 (0.05%) was added to wash each well, monoclonal antibodies were sequentially diluted from 50 nM by ½, added at 100 μl each to an antigen-coated plate, and allowed to be reacted at room temperature for 2 hours. 0.2 ml of PBS-Tween20 (0.05%) was added again to wash each well three times, and a secondary antibody, anti-human Fc-HRP, was diluted at 1:4000 and allowed to be reacted at room temperature for 50 minutes. The plate was washed with 0.2 ml of PBS-Tween20 (0.05%), and a substrate solution prepared by adding an OPD table to a PC buffer was added to the plate at 100 μl per well to allow color development for 5 minutes, followed by measuring an absorbance at 490 nm using a spectrophotometer. The ELISA result was analyzed using a Graphpad prism ver. 4 software (CA 92037: Graphpad Software Inc., USA).
In general terms: An ELISA detects its analyte on a solid surface through an enzyme-linked reagent.

In test [2] the target is T1, Human CXCL10-His. Kind of test: phage ELISA.
The target in test [3] is T2, α-myc (anti-myc antibody coated as second antigen).
T2 construct: Coated at 100 ng per well beside CXCL10 in the phage ELISA; in effect a control of scFv display; also called a-myc
Kind of test: phage ELISA.

Test [4] deals with T3, His (control coat of Table 2).
T3 construct: Not explained in the text
Kind of test: phage ELISA.

In test [5] the target is T1, Human CXCL10-His. The test can be described thus: phage ELISA, CXCL10/a-myc. Here is the method: Two types of antigens such as CXCL10 and α-myc were put into a 96-well immunoplate at 100 ng per well and coated with a coating buffer at 4° C. for 16 hours, and wells were blocked with skim milk (4%) dissolved in PBS. Each well was washed with 0.2 ml of PBS-Tween20 (0.05%), and the monoclonal scFv-phages obtained by the third panning (each 100 scFv-phage) were added at 100 μl per well, and allowed to be reacted at room temperature for 2 hours. Each well was washed again with 0.2 ml of PBS-Tween20 (0.05%) four times, and a secondary antibody, anti-M13-HRP, was diluted at 1/2000 and allowed to be reacted at room temperature for 1 hour. Each well was washed with 0.2 ml of PBS-Tween20 (0.05%) and allowed to develop a color to measure an absorbance at 490 nm.

Changes are numbered by the printed parent chain.

B1: anti-CXCL10 antibody 9E (whole IgG) (antibody, V domains shown)
VH: QVQLVESGGGVVQPGRSLRLSCAASGFTFSSYGMHWVRQAPGKGLEWVAVISYDGNNKYYVDSVKGRFTISRDNSKNTLYLQMNSLRSEDTAVYYCARDSGSYLDWYFDLWGRGTLVTVSS
VL: QPPSVSVAPGKTARIACGGGNIGDKSVHWYQQKPGQAPVLVIFYDSDRPSGIPKRLSGSNSGNTATLTISRVEAGDEGDYYCQVWDSSSDRPVFGGGTKLTVLG
notes: Whole-form IgG
The molecule B1 came in with a Kd in the test with Human CXCL10-His [1] of 6.1 pM.

B2: anti-CXCL10 antibody 10E (whole IgG) (antibody, V domains shown)
VH: B1 VH with E6Q, S30N, L45P, N57S, V61A, N77T
VL: QPPSVSGAPGQRVTISCTGSRSNFGAGHDVHWYQQLPGTAPKLLIYGNNNRPSGVPDRFSGSKSGTSASLAITGLQAEDEADYYCQSYDSRLGVVFGGGTKLTVLG
notes: also called E10
Turning to B2, in the test with Human CXCL10-His [1], the affinity, expressed as Kd, was 7 pM.

B3: scFv-phage clone 10E (scFv)
scFv: QVQLVQSGGGVVQPGRSLRLSCAASGFTFNSYGMHWVRQAPGKGPEWVAVISYDGNSKYYADSVKGRFTISRDNSKTTLYLQMNSLRSEDTAVYYCARDSGSYLDWYFDLWGRGTLVTVSSGLGGLGGGGSGGGGSGGSSGVGSQFVLTQPPSVSGAPGQRVTISCTGSRSNFGAGHDVHWYQQLPGTAPKLLIYGNNNRPSGVPDRFSGSKSGTSASLAITGLQAEDEADYYCQSYDSRLGVVFGGGTKLTVL
notes: also called E10 scFv
In the case of B3, the figures for the OD490 (with Human CXCL10-His [2]; in test [3]; in test [4]) were 3.05, 0.307 and 0.051, respectively. Further, in the test with Human CXCL10-His [5], the Ratio was 9.95.

B4: scFv-phage clone 10D (scFv)
scFv: QVQLVQSGGGVVQPGRSLRLSCAASGFTFSSYGMHWVRQAPGKGLEWVAVISYDGSNKYYADSVKGRFTISRDNSKNTLYLQMNSLRSEDTAVYYCARDKRAAFDIWGQGKMVTVSSGLGGLGGGGSGGGGSGGSSGVGSSYELTQAPSLSVSPGQTANIICSGDNLRTKYVSWYQQKPGQSPLLVIYQDTRRPSGIPARFSGSNSGNTATLTISGTQTERESTYYCMTWDVDTTSMIFGGGTKLTVL
As to B4, the OD490 with Human CXCL10-His [2] was found to be 2.85; in test [4], 0.178. In addition, the Ratio with Human CXCL10-His [5] is 0.945.

B5: scFv-phage clone 12D (scFv)
chain: QVQLVQSGGGVVQPGRSLRLSCVASAFTFSRYGMHWVRQAPGKGLEWVALISYDGSSEYYADSVKGRFNISRDNSKNTVYLQMNSLRAEDTAVYYCVKDGLAAKLGHWGQGTLVTVSSQAPSLSVSPGQTANIICSGDNLRTKYVSWYQQKPGQSPLLVIYQDTRRPSGIPARFSGSNSGNTATLTISGTQTERESTYYCMTWDVDTTSMIFGGGTKLTVLG
Take B5: the OD490 in the test with Human CXCL10-His [2] was found to be 3.02. Besides, in the test with Human CXCL10-His [5], the Ratio stood at 3.4.

B6: anti-CXCL10 antibody 12D (whole IgG) (antibody, V domains shown)
VH: QVQLVQSGGGVVQPGRSLRLSCVASAFTFSRYGMHWVRQAPGKGLEWVALISYDGSSEYYADSVKGRFNISRDNSKNTVYLQMNSLRAEDTAVYYCVKDGLAAKLGHWGQGTLVTVSS
VL: QAPSLSVSPGQTANIICSGDNLRTKYVSWYQQKPGQSPLLVIYQDTRRPSGIPARFSGSNSGNTATLTISGTQTERESTYYCMTWDVDTTSMIFGGGTKLTVLG
notes: Whole-form IgG
As for B6, in the test with Human CXCL10-His [1], the affinity, expressed as Kd, was 4.7 pM.

B7: scFv-phage clone 9E (scFv)
chain: QVQLVESGGGVVQPGRSLRLSCAASGFTFSSYGMHWVRQAPGKGLEWVAVISYDGNNKYYVDSVKGRFTISRDNSKNTLYLQMNSLRSEDTAVYYCARDSGSYLDWYFDLWGRGTLVTVSSQPPSVSVAPGKTARIACGGGNIGDKSVHWYQQKPGQAPVLVIFYDSDRPSGIPKRLSGSNSGNTATLTISRVEAGDEGDYYCQVWDSSSDRPVFGGGTKLTVLG
In the test with Human CXCL10-His [2], B7 displayed an OD490 of 2.96. Besides, the Ratio with Human CXCL10-His [5] is 1.48.

The Kd is the constant that tells how readily two partners part at equilibrium.

The values are drawn from patent US20160108118A1 (METABOLIC ENGINEERING LABORATORIES, published 2016).
